US20200040057A1 (IMMATICS BIOTECHNOLOGIES, published 2020)

B1: QPSLVQAIF (peptide)
peptide: QPSLVQAIF
B2: FPCSALLACF (peptide)
peptide: FPCSALLACF
B3: MPVSAFTVI (peptide)
peptide: MPVSAFTVI
B4: RPRYETGVCA (peptide)
peptide: RPRYETGVCA
B5: RPRSLQCVSL (peptide)
peptide: RPRSLQCVSL
B6: YPSSPASAV (peptide)
peptide: YPSSPASAV
B7: KPHLDRRGAVI (peptide)
peptide: KPHLDRRGAVI
B8: IPHQRSSL (peptide)
peptide: IPHQRSSL
B9: KPRTPFTTAQLL (peptide)
peptide: KPRTPFTTAQLL
B10: MPYVVLTAL (peptide)
peptide: MPYVVLTAL
B11: LPRLPVGSLV (peptide)
peptide: LPRLPVGSLV
B12: QPDHAGIFRVF (peptide)
peptide: QPDHAGIFRVF
B13: TPFPDIHWF (peptide)
peptide: TPFPDIHWF
B14: SPTRGSEF (peptide)
peptide: SPTRGSEF
B15: QPTWNTQTRL (peptide)
peptide: QPTWNTQTRL
B16: QPVHSLCSA (peptide)
peptide: QPVHSLCSA
B17: LPSLSHCSQL (peptide)
peptide: LPSLSHCSQL
B18: RPVTGSVC (peptide)
peptide: RPVTGSVC
B19: RAAGRRLQL (peptide)
peptide: RAAGRRLQL
B20: RPSKEMQVTI (peptide)
peptide: RPSKEMQVTI
B21: NVNPARKGL (peptide)
peptide: NVNPARKGL
B22: SPSGQRDVSL (peptide)
peptide: SPSGQRDVSL
B23: LPLNSSTSL (peptide)
peptide: LPLNSSTSL
B24: RPFSVSSISQL (peptide)
peptide: RPFSVSSISQL
B25: APEGKRLGF (peptide)
peptide: APEGKRLGF
B26: IPVTSSVTL (peptide)
peptide: IPVTSSVTL
B27: QPLDICHSF (peptide)
peptide: QPLDICHSF
B28: RLRDYISSL (peptide)
peptide: RLRDYISSL
B29: RPVLTASSF (peptide)
peptide: RPVLTASSF
B30: APPPPPPPF (peptide)
peptide: APPPPPPPF
B31: QPQCSTHIL (peptide)
peptide: QPQCSTHIL
B32: KPKAVKPKAA (peptide)
peptide: KPKAVKPKAA
B33: LPALKEEAF (peptide)
peptide: LPALKEEAF
B34: LPIARVLTV (peptide)
peptide: LPIARVLTV
B35: RPDSRLLEL (peptide)
peptide: RPDSRLLEL
B36: VPYAAQAAL (peptide)
peptide: VPYAAQAAL
B37: SPMEAELVRRIL (peptide)
peptide: SPMEAELVRRIL
B38: RPYQDAPVA (peptide)
peptide: RPYQDAPVA
B39: APLPRPGAV (peptide)
peptide: APLPRPGAV
B40: SPIIHSILL (peptide)
peptide: SPIIHSILL
B41: DVIDDIISL (peptide)
peptide: DVIDDIISL
B42: SPITLQAL (peptide)
peptide: SPITLQAL
B43: LPNTGRIGQLL (peptide)
peptide: LPNTGRIGQLL
B44: LPRAGGAF (peptide)
peptide: LPRAGGAF
B45: LPRAGGAFLM (peptide)
peptide: LPRAGGAFLM
B46: GPVPSPLAL (peptide)
peptide: GPVPSPLAL
B47: RPILKEQSSSSF (peptide)
peptide: RPILKEQSSSSF
B48: MPVDSFNSM (peptide)
peptide: MPVDSFNSM
B49: MPVDSFNSML (peptide)
peptide: MPVDSFNSML
B50: RVIQGTTTL (peptide)
peptide: RVIQGTTTL
B51: VPSHWMVAL (peptide)
peptide: VPSHWMVAL
B52: SPVPSHWMVAL (peptide)
peptide: SPVPSHWMVAL
B53: VPMPGVQAV (peptide)
peptide: VPMPGVQAV
B54: LVQSSRSEV (peptide)
peptide: LVQSSRSEV
B55: SPSTSRTPLLSSL (peptide)
peptide: SPSTSRTPLLSSL
B56: KPGFNISIL (peptide)
peptide: KPGFNISIL
B57: KPYEGRVEI (peptide)
peptide: KPYEGRVEI
B58: FPAPPAHWF (peptide)
peptide: FPAPPAHWF
B59: RPVWDVRSA (peptide)
peptide: RPVWDVRSA
B60: LPRAFLQSL (peptide)
peptide: LPRAFLQSL
B61: NPRSPPATM (peptide)
peptide: NPRSPPATM
B62: AVRLPTPNL (peptide)
peptide: AVRLPTPNL
B63: RPQPGWRESL (peptide)
peptide: RPQPGWRESL
B64: RPSAPRGPP (peptide)
peptide: RPSAPRGPP
B65: SPAAPLSPASSL (peptide)
peptide: SPAAPLSPASSL
B66: APARPAAAF (peptide)
peptide: APARPAAAF
B67: SPIPRPLFL (peptide)
peptide: SPIPRPLFL
B68: RPTHPLRSF (peptide)
peptide: RPTHPLRSF
B69: FPYDKPLIM (peptide)
peptide: FPYDKPLIM
B70: VPKPAIPSSSVL (peptide)
peptide: VPKPAIPSSSVL
B71: HPRWIEPTVM (peptide)
peptide: HPRWIEPTVM
B72: SPLLMQRTL (peptide)
peptide: SPLLMQRTL
B73: SPFSGGPVSF (peptide)
peptide: SPFSGGPVSF
B74: RPPPPCIAL (peptide)
peptide: RPPPPCIAL
B75: RPDVVRTLL (peptide)
peptide: RPDVVRTLL

The binders below were run against HLA-B*07 (human) (assay: UV peptide exchange ELISA; ++++ = yield >75%).
B1 gave a peptide exchange yield greater than 75%.
B2 gave a peptide exchange yield greater than 75%.
B3 was tested, and the peptide exchange yield was greater than 75%.
B4 was tested, and the peptide exchange yield was greater than 75%.
Binder B5 has a peptide exchange yield greater than 75%.
B6 was tested, and the peptide exchange yield was greater than 75%.
In the case of B7, the peptide exchange yield is reported as greater than 75%.
B8 showed a peptide exchange yield greater than 75%.
Work on B9 yielded a peptide exchange yield greater than 75%.
B10 gave a peptide exchange yield greater than 75%.
For B11, the peptide exchange yield was greater than 75%.
Work on B12 yielded a peptide exchange yield greater than 75%.
Binder B13 has a peptide exchange yield greater than 75%.
Work on B14 yielded a peptide exchange yield greater than 75%.
B15 was tested, and the peptide exchange yield was greater than 75%.
With B16 the peptide exchange yield was greater than 75%.
Work on B17 yielded a peptide exchange yield greater than 75%.
B18 gave a peptide exchange yield greater than 75%.
B19 showed a peptide exchange yield greater than 75%.
Work on B20 yielded a peptide exchange yield greater than 75%.
B21 showed a peptide exchange yield greater than 75%.
B22 showed a peptide exchange yield greater than 75%.
In the case of B23, the peptide exchange yield is reported as greater than 75%.
B24 showed a peptide exchange yield greater than 75%.
In the case of B25, the peptide exchange yield is reported as greater than 75%.
B26 showed a peptide exchange yield greater than 75%.
B27 showed a peptide exchange yield greater than 75%.
B28 gave a peptide exchange yield greater than 75%.
B29 was tested, and the peptide exchange yield was greater than 75%.
B30 gave a peptide exchange yield greater than 75%.
Work on B31 yielded a peptide exchange yield greater than 75%.
B32 showed a peptide exchange yield greater than 75%.
Work on B33 yielded a peptide exchange yield greater than 75%.
Binder B34 has a peptide exchange yield greater than 75%.
With B35 the peptide exchange yield was greater than 75%.
For B36, the peptide exchange yield was greater than 75%.
With B37 the peptide exchange yield was greater than 75%.
In the case of B38, the peptide exchange yield is reported as greater than 75%.
B39 showed a peptide exchange yield greater than 75%.
Work on B40 yielded a peptide exchange yield greater than 75%.
Binder B41 has a peptide exchange yield greater than 75%.
In the case of B42, the peptide exchange yield is reported as greater than 75%.
B43 showed a peptide exchange yield greater than 75%.
With B44 the peptide exchange yield was greater than 75%.
Work on B45 yielded a peptide exchange yield greater than 75%.
For B46, the peptide exchange yield was greater than 75%.
B47 showed a peptide exchange yield greater than 75%.
Work on B48 yielded a peptide exchange yield greater than 75%.
B49 showed a peptide exchange yield greater than 75%.
B50 gave a peptide exchange yield greater than 75%.
With B51 the peptide exchange yield was greater than 75%.
Work on B52 yielded a peptide exchange yield greater than 75%.
B53 was tested, and the peptide exchange yield was greater than 75%.
B54 showed a peptide exchange yield greater than 75%.
Binder B55 has a peptide exchange yield greater than 75%.
Binder B56 has a peptide exchange yield greater than 75%.
B57 showed a peptide exchange yield greater than 75%.
For B58, the peptide exchange yield was greater than 75%.
B59 showed a peptide exchange yield greater than 75%.
B60 showed a peptide exchange yield greater than 75%.
Work on B61 yielded a peptide exchange yield greater than 75%.
B62 gave a peptide exchange yield greater than 75%.
With B63 the peptide exchange yield was greater than 75%.
Work on B64 yielded a peptide exchange yield greater than 75%.
B65 was tested, and the peptide exchange yield was greater than 75%.
With B66 the peptide exchange yield was greater than 75%.
B67 was tested, and the peptide exchange yield was greater than 75%.
For B68, the peptide exchange yield was greater than 75%.
B69 showed a peptide exchange yield greater than 75%.
Work on B70 yielded a peptide exchange yield greater than 75%.
B71 was tested, and the peptide exchange yield was greater than 75%.
B72 showed a peptide exchange yield greater than 75%.
Work on B73 yielded a peptide exchange yield greater than 75%.
With B74 the peptide exchange yield was greater than 75%.
B75 showed a peptide exchange yield greater than 75%.
